Results on 47 sequences are retold here after the NTF2 design screens of Basanta et al. (2020).

The data set is described as follows: protease stability score; higher = more stable; yeast display proteolysis, trypsin and chymotrypsin.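 Note: relative to predicted unfolded state with 0 unfolded-like and 1 meaning tenfold more protease.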
“DEEEKILEEFLEIWIEAVATGDEEVLEHLMDPNTRVHILVGDKTLDVHGMEFFKRHIKILGADHIEWRIRHKEVINGRIHTRGELILRQGDKERRIDVEIILVVVNGRLKNSEVRER” gave a protease stability score of 1.43.

Take “SEDEHDARHAIELFLRSMETGDEQSIWELADPHTLSDIDGVKLHGRDLWITFLRRYSETLGVDRVIVQVERVEVQGDKVRSHIRLHINGVTLNSRVHAEKINGVWLNRKVEFG”: the protease stability score worked out at 1.3.

In the case of “SEDEELVDHAWETYLRNLLTGDERTLADLIDPHVRVHINGVEFIGREELIKWLSEIRIRTIRVRRRSLINGRVEIIVDLELQVGDKHDRVTIYLIMDKFDGRWIHHTFSVE”, the protease stability score is 0.41. Turning to “DEREHSVKLAFDKFLEDLHTGNEEMLDRFLDPHVRYHVGDKERHGRENFSRHVAKFLTEYGFKHLHLHMKDWEVQGDKATIEGHVNMHFNGRLIRHNTHLVIWKVNGRWLLESSEER”, the protease stability score was determined as 0.699. The sequence “DEDEENFERLVHLTLHYLLTGDFEDFNHLADPHVKLNVNGQQHVGREKWSELLHLFGINHMQIEERDLRVIGDKVRLDVRGTSQVGDKEHEVHIHIHAQKVNGRWTVTEMQINTE” had a protease stability score of 2.1.

“DEDEEHAYRIFKILLESVYTGNEEMLHTLLDPHARLVFDGVHHHGRETVSYMMHHWRVEEFHTHSFHVDIINGVADLKWDGHITGHFNGKRQESRVEIRFFLRKVDGKWLNESVEIIFR” returned a protease stability score of 1.49. The value for “EEEKRISDRSLEHLVRSWWTGDEQLYTELADPNVRVEIGDKEYHGREDARHALRRELEHIRIKHIVYRRFEFVGEYIHVDTRMLVDVNGVHILRTMHILEFKFDGRWHLTSLIIR” was 1.21; that for “DEHHKILTELMRDALRYEETGDWDETSKLLDPRTRLDFNGVEVIGREAYEHLLRFLGIKVFRETDMEVQGDKIKLNGRSNFNGRETEHYIYALKVDGRWILRSVEFK” was 1.3; that for “HEDEEEMKKFIHRWENDLRTGDEESHRRLADPNTLLVVNGRRVHGMEAVLHIVREMRLHEVYIDDIRIINGRAHTELTVKGEIDGVKHWSHTHIHVTKVNGQWHIDTIRIL” was 0.663.

With “SELEELTEEAVKHILHIWETGDEEMSHDLVDPHVRVHVNGQKYHGRENAVEHISKLKGAKWHLRRFEVIDGKIHVDGQFHFNGRHHEVRVVIRKINGRWLIHEIQID”, the protease stability score was 1.77. The value for “DEDERLAEEFFEKFTRDIYTGDWRALRELLDPNVRLHINGRNHHGREELLYFEIEIYRRADHVEHRLREVTLFDGRVHVDVEIILHQGDKLIVLHVILFMEKVDGRWILRRKEVR” was 1.5; that for “DDHSSARKFADEFREMMKTGDSTKADELFDPNVRVEVGDKRYHGREQAVDWIRHLVDRYDHIEIRIDHITVRGDRISIVFTVHYEKNGETTYDRYVMVAVDRNGRAQIKMLRKG” was 2.09; that for “SEEERDVKEVLKLIFEHFLTGDWDWLSEMMDPHARSDINGVERHGRDDLKEMYEAIIRKLGADHIRVDTVRVDLFDGRLIVEIHTRNHVGDKEFRVINIFIMRKINGRWHVESVLLHIE” was 1.56. The value for “DEIREEMEKVFRVFIHNMFTGDFEKLEELADPNARSKVDGVDDHGMHKFLRHWLHHVRRYGMKVEFEVHHIDVQGDKVQIDTRIVIDYNGRRFEWKSELIAVKIDGQWLIKRIIIH” was 1.6; that for “DNTEENTRTLLELLKRVWRTGDWSQLDKLLDPNARAEINGVELHGREKVVEVFREELERLGVEYTDSRVKDMKVQGDKAIIDLELETEQGDKTHMHDLHIETRKVDGRWFVEHIIVH” was 1.75. Regarding “SEREKHWRDWVENVVEYHTHLLETGDEEEWKRFFRRLADPHVRMIVGDKVTHGREDAMRLFDELIKLLGVNHVHFRRVEIIGNKVNIDVELRQGNKFINLELILIVIDGKLENVERRVH”, the protease stability score was 1.14.

Take “SEDEEIQKKFWEEFMKALHTGDWHTLEKLLDPHVRYLVGEKHVHGRKKLEMEIRHLGVTNIEMHLHIESEERQGNKIILNGEFRRRINGVEIKTRAILILIKIDGRWVIDTEFIE”: the protease stability score was determined as 2.05. The value for “DEDESLAKWAVEVLFEDLRTGDEDHLRRLMDPDTRFIIGDKIFHGREKAEEWLRLNRKRVDHLESFHIHHITVDENHLRVHGRVVGTFDGVEDKYETHIFARKVNGRWHHRQLKIK” was 1.49. In turn, “HETKHLVDKFIELFKHNLETGDWDRLLELADPRTRVHVGDKTLIGMHEFRELHLRLIEKHGIKLNYYVHEVHVQGDKAHVDNEREEDYNGRVVSFRIRMHVEKFDGRWYLTRIEFN” yielded a protease stability score of 1.33. Take “SEDDEITHYILQLWLDLVQTGDEEKLTDLHDPHVRNRINGREKHGRERAAELLSRLKKALGIDHIHRLMIEDFRIQGEKIQLHVRIKQEINGQEFTRSIELILLKINGRWSVESIDIR”: the protease stability score was found to be 1.42.

As for “HEEEKHLKEMIERLYHYQLTGNWEELHRLADPHAKWHINGQDIHGMHIAVELILKEVRRIDHVDSDSKRIDMQGDKMRSNVHEIIEVGDKSIRRDSILILVIIDGRIREVSIIIL”, the protease stability score was 1.1.

With “DHHEKHLKHIFHLYIRAWITGNEKEMQDLADPNVRMHVGDKHVHGREEVRRLHHHLLTHIRLDHFHIDDHRVYDGVVEVKGIEDHNVNGQRHRFESTWIIVIVNGRIEEIEIRVH”, the protease stability score was found to be 1.16. For “DEDEELVRHAYEDWLHTVRTGDEHTLNKLFDPHVRMHYDGVESHGWRIAHHFHRRFKNMQVRIDDEHIEVYGEFARVESKITLDVGEYKIDLTLIVIMIKVNGRWKIHSVRIEKR” the value was 1.17; for “DEFQHMAELASTLFQRSNHTGDEHSLQEMLDPNVRVIVGDKEFHGMEELLKTLRKELEILGVQRIETEVHQVNVQGNKINVDLILHVNGRERRIHLWAHKINGRWITERIEVR”, 0.922. The value for “NEINRHLHEAFKKLINVMMTGDEEESTELLDPNARINFNGKDFWGWNELRKSMHEARIHHIQITSVRYIGDKIIIHGTVDGEFDGQRKEVEMEIFSRKFNGQWFFESIIIR” was 1.28. The sequence “DEEREDIEKVTHILSEIWETGDEHRLHRMLDPNTKVVIDGVEIHGRELIIRFRKELRHKLGLDRIEVDIDHIEVQGDKAISDTSIDYNGREFKVINTVHKYNGRWLVHRIIHE” registered a protease stability score of 0.815. The value for “DEEKKAIRKVWELVIHSLVTGDEDSVEKLLDPHVRVHINGVHLHGMETFRHTFHEWRLEIKSVHIQDMDSINGVARLDISFVGRFKFDGRVEETIIDIHLVVNKINGRWVIEEQKFE” was 1.48. Consider “TEDERMNKEFHRLIWELIDTGDEETLRKLADPNTRLEVNGKTIIGREEFLSIWKHELHMLGVKHLEIHIRSVMFFENRVENDVELVLHIGEYEERRRIHIFLIKINGKWYHKSERIR”, for which the protease stability score came out at 1.46.

Consider “SEEEEDMRKAHEFVDKLIHTGDEDETRRYADPNVLVTINGRRWVGRDDYVEVLREILHRADHVHLHEKSIRIVDGVVQINSNLFIKQGDKEIHLDIRFHIRKVNGRWDMKRMEIR”, for which the protease stability score is 1.64. The value for “DEEEKIIEHVLRLLAEALSTGDEDTLDKLVDPNARVMIDGVDIHGMESMTEWLKHLRIERVHVELRDYREFNGKIHVDGVLHVDRRIGDKREHVSSKTTFIFTKVDGRWKVESIKIK” was 2.42. “DEDTELDETISREIIHAEKTGNEDWLTKLIDPNPRIEINGRIFHGMDFWLKFLKDMGVDHIDVKRDRAYNGVLDMDGYIIVNGREIRTHIHIVIVDGKATHIRIEIR” displayed a protease stability score of 1.61. The value for “QEELDIAREMIKMWTHHLETGDEEVTKHLADPTTRFIIDGVTYHGMHNTVRLWLEIRSHSRIRIRFVEVQGNKVNSDVELEYDLIVGEKTDTIIRRSHLYLHKVDGRWRIKEIEFR” was 1.12. On to “DEDEKVSHHAYKLIEHLFLTGDESTWMRMADPRTRIIIGDFHLIGREEWARVLKEILDRLGFKHIQFTDREVRVYGEKVHVELHLLLIQGDKEIRVELRYISDKIDGQWRYHSVTHHIK”, for which the protease stability score came to 0.998.

“SQIEEDIRRQLKRFNDALTTGDEDEIMNLFDPDVRWIQGNYEHHGREFYLEMFREWRTHSIRIDIDRMEIQGDKVTLHTRFTVDGEFNGRRITEQYELVFIARKIDGRWVFREVRIK” came in with a protease stability score of 2.4. With “SELEKLAEEMLELFIEIFLTGDWRTFLRLADPHTRLNVDGKNNHGREEVRRHLEEELRQMRWHDVKIHDFDVIGEKAHVRLRVDGIINGRRIDFEMELEITVVNGVIKDVRVRRR”, the protease stability score is 1.48. For “DREKKEAEQLIRLINRYIQTGDEHSLSRLMDPHVLLQVGDKKDIGWEIIINKIKEMWEKFKGARFNLEMRDIHLQGDFAEIDVEFEILVNGQFDTLKTRFIIFKIDGRWVIRSLSLE” the value was 2.33; for “SEDEEKATEFFRLLVDNWLTGDEENVERLLDPRVRVLVGDKMIHGRHLSARLESEFLKRIPNLRIRFHLHDVRTYGDKAHLDIIIDIHFNGVDIHIESELVVVKIDGRWLFKEERRK”, 0.276; for “DEDDELSRKAREFTSEVLRTGDEHSLLRMADPNTRNIVGNKEEHGWEHFEHFVREHWRRFGITNVDVKLEDLRVVDGRIEADMRVRVNGVERTWHFLIRKIDGKWRMESIEIR”, 0.416. For “DEEKEEFKIASKLFIDSLRTGNEELLSFLFDPHAKSDVNGKNIHGMEILAETMSRLFERYKGMQIRVDEIRFFDGQIHLHGRVNFNGREHTVIVIINKVNGQWRIQDLQID” the value was 1.11; for “DDLKEDADKYSDLEREARQTGDEDFISNLMDPNVLVLINGREIHGREDVLKWLVDLRRKLGVDRFRSEVEDKHIDVQGDKIRIHGILRLNFNGQHFRIDVHIIFQKVDGRWHVREERYH”, 1.41; for “SEDETLMRHLVQLFIRREATGDWKKLDELFDPNVRIDINGVEYHGREDWLKHYEDLLKRIKNVRIEIDDQHMEVVGDFIHYDLHGTLEVNGRNIRMQIIIHIRKIDGKWLIEEQIIIIR”, 1.4. For “TEHDEDLDRWYDVLKHVLHTGDEEAKAKMVDPHVREDVNGQELHGRDDVRRLDRELGVNHFVLRVERLNIQGNKITMRGTLELTVGDKTERRHVIIHMIKIDGKWFTHHEQIR” the value was 1.04; for “SDEDRLNYEIAKYLLDSLRTGDWHTFRRMADPHVKIRTVINGQELRMHGMEDLMERWKLLGFDHTRVHVEHIEIQGDKAHVRGTVKININGQEHTYETDLDVQIVNGRVESINFNWL”, 1.14.

As to “TEDDEWFNEILRLMVEAMKTGDEHILERLLDPHVRIEINGKEIHGREEFVERLEEQQRKFKGIRHELEIKHTEVINGRAHIDGRLHIDVNGRRKIYRVELVILKIDGRWSVEEIRIH”, the protease stability score was found to be 1.67.

Consider “TENKRDLDLLIKLHLYLHKTGDWERLFKLMDPHARLEVGDFHIHGREEVIRWFVELMERVKNMRFDLQDRKVEVQGEKVIVRSDVEVNIDGVVIRVYLEVDSIKVDGKWHLHSERIELR”, for which the protease stability score was found to be 1.29. Sequence “SEEEERSERSLKHLLKTELTGNEEEFWRLADPNAKIEVIIDGVRISDHGREAIIRLWRFMGFDHLIFRHIHVHIQGDKMDVHIQGESRIGDKEMRTTIFLHVIKINGRWINHTLIIEQK” displayed a protease stability score of 1.24. The sequence “SEEEEEMKRFIEDELRAWRTGDEDLIHEQFDPHVRVIIGEFEYHGRELLHEMFNRIDHIEHIELRIHHVHLQGDKAHLEVEEREHGVFDGKRINVSREINIIIHKIDGRWVHTIIIIE” yielded a protease stability score of 0.606.
